Experimental findings from patent publication US20190127480A1 (Regeneron, published 2019) are described below.

Experiment [1] concerns the target T1, Soluble heterodimeric CD3 protein (hCD3-epsilon/hCD3-delta) with either a human Fc tag (hFcΔAdp/hFc) or a … (human, UniProt P07766 23-126; P04234 22-105).
T1 construct: also called hCD3ε/δ; not shown: Fc tag: human (hFcΔAdp/hFc)
The experiment can be described thus: SPR Biacore 25C antigen-capture, 1-arm. On the procedure:
In the antigen-capture format, heterodimeric CD3 protein was captured using a rabbit anti-mouse Fc or mouse anti-human Fc and the respective antibodies were injected over the captured antigen.
(§1) Kinetic association (kₐ) and dissociation (kd) rate constants were determined by processing and fitting the data to a 1:1 binding model using Scrubber 2.0 curve fitting software. Binding dissociation equilibrium constants (KD) and dissociative half-lives (t₁₁₂) were calculated from the kinetic rate constants as: KD (M)=kd/kₐ; and t_{1/2} (min)=(ln 2/(60*kd). NT=not tested; NB=no binding observed.
(In general: In SPR one partner is held on a chip, and binding of the other changes the refractive index at the surface.)

Experiment [2] addresses T1, Soluble heterodimeric CD3 protein …. The experiment is described as follows: SPR Biacore 25C antibody-capture, 1-arm. On the procedure: (§2) Soluble heterodimeric CD3 protein (hCD3-epsilon/hCD3-delta; SEQ ID NOs:1652/1653) with either a human Fc tag (hFcΔAdp/hFc; SEQ ID NOs:1683/1684) or a mouse Fc tag (mFcΔAdp/mFc; SEQ ID NOs:1685/1686) was injected over the antibody captured surface and the binding response was recorded. Heterodimeric CD3 protein was purified using the method described in Davis et al. (US2010/0331527).
as §1

The target is the same in experiment [3]. The experiment can be described thus: SPR Biacore 25C antigen-capture. In a few lines:
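Rate constants fitted to a 1:1 model, giving KD as kd/ka and dissociative half-life as ln2/(60·kd) minutes. Antibodies flowed over CD3ε/δ heterodimer captured on anti-human or anti-mouse Fc surfaces, run on a Biacore T200 at 25 °C.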

Experiment [4] has the same target. The experiment can be described thus: SPR Biacore 25C antibody-capture. On the procedure: Measurements were conducted on a T200 Biacore™ instrument.
as §2, §1

T1 sequence (P07766 23-126 limits assumed, stated change not applied, chain 1 of 2): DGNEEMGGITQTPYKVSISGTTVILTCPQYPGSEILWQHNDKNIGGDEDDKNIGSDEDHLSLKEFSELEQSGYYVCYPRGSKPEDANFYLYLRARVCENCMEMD
T1 sequence (P04234 22-105 limits assumed, stated change not applied, chain 2 of 2): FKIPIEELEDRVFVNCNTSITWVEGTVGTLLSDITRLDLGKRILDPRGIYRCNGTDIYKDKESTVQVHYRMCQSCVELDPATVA

B1: H1H7194P (monovalent 1-arm) (antibody, human IgG1, V domains shown)
VH: EVQLVESGGGLVQPGRSLRLSCAASGFTFGDYTMHWVRQAPGKGLEWVSDISWNSGSKDYADSVKGRFTISRDNAKNSLYLQMNSLRTEDTAFYYCAKDSRGYGLYYHLGLDVWGQGTTVTVSS
VL: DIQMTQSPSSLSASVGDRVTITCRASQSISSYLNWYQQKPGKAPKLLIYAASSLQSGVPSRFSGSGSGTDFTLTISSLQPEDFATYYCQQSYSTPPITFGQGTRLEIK
notes: Monovalent 1-arm: second Fab removed, only the Fc portion (CH2-CH3) expressed; human IgG1 Fc; tied by numerical identifier; also called H1H7194B
As for B1, in experiment [1], the affinity, expressed as Kd, was 0.241 nM; the “T½” value stood at 137 min; the koff (usually the rate constant with which the complex falls apart) is 8.43e-05 s⁻¹; the on-rate (kon) (in general, a measure of how fast the partners come together) amounted to 350000 M⁻¹ s⁻¹. In experiment [2], the Kd (in general, the free concentration of one partner at which half of the binding sites on the other are occupied at equilibrium, for simple one-to-one binding) is 13 nM; the “T½” value worked out at 76 min; the koff was 0.000151 s⁻¹; the kon came out at 11600 M⁻¹ s⁻¹.

B2: H1H7195P (monovalent 1-arm) (antibody, human IgG1, V domains shown)
VH: EVQLVESGGGLVQPGRSLRLSCAASGFTFADYTMHWVRQAPGKGLEWVSDISWNSGSIAYADSVKGRFTISRDNAKNSLYLQMNSLRTEDTAFYYCAKDSRGYGHYKYLGLDVWGQGTTVTVSS
VL: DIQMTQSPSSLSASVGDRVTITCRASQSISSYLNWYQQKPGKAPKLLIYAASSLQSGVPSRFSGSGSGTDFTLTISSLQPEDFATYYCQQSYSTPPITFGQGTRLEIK
notes: Monovalent 1-arm: second Fab removed, only the Fc portion (CH2-CH3) expressed; human IgG1 Fc; tied by numerical identifier; also called H1H7195B
With B2, in experiment [1], the Kd amounted to 0.126 nM, the “T½” value came to 162 min, the koff is 7.14e-05 s⁻¹ and the kon was found to be 566000 M⁻¹ s⁻¹. Moreover, in experiment [2], binding was characterised by a dissociation constant (Kd) of 3.16 nM, the “T½” value stood at 117 min, the koff was 9.89e-05 s⁻¹ and the kon was 31300 M⁻¹ s⁻¹.

B3: H1xH7221G5 (monovalent 1-arm) (antibody, V domains shown)
VH: EVQLVESGGGLVQPGRSLRLSCAASGFTFDDYSMHWVRQAPGKGLEWVSGISWNSGSIGYADSVKGRFTISRDNAKNSLYLQMNSLRAEDTALYYCAKDGSGYGKFYYYGMDVWGQGTTVTVSS
VL: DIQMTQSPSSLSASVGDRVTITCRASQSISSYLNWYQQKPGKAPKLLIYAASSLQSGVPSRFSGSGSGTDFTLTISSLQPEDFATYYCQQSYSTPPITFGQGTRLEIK
notes: Monovalent 1-arm: second Fab removed, only the Fc portion (CH2-CH3) expressed; prefix H1xH not explained
In the case of B3, the binding result in experiment [2] is recorded as “no binding”.

B4: H1xH7221G3 (monovalent 1-arm) (antibody, V domains shown)
VH: EVQLVESGGGLVQPGRSLRLSCAASGFTFDDYSMHWVRQAPGKGLEWVSGISWNSGSIGYADSVKGRFTISRDNAKNSLYLQMNSLRAEDTALYYCAKDGSGYGYFYYYGMDVWGQGTTVTVSS
VL: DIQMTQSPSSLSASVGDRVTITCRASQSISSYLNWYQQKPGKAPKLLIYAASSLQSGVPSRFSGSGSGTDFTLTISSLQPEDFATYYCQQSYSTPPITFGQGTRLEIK
notes: as for B3
B4: the binding result in experiment [2] is “no binding”.

B5: H1H7223P (monovalent 1-arm) (antibody, human IgG1, V domains shown)
VH: QVQLVESGGGLVQPGRSLRLSCAASGFTFADYTMHWVRQAPGKGLEWVSDISWNSGSMGYADSVKGRFTISRDNAKKSLYLQMNSLRTEDTALYYCAKDGSGYGKYFFYAMDVWGQGTTVTVSS
VL: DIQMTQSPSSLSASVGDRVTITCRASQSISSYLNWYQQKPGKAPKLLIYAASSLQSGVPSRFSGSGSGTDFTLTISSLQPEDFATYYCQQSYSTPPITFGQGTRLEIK
notes: Monovalent 1-arm: second Fab removed, only the Fc portion (CH2-CH3) expressed; human IgG1 Fc; tied by numerical identifier; also called H1H7223B
With B5, in experiment [1], the affinity, expressed as Kd, was 1.53 nM; the “T½” value worked out at 40 min; the koff came to 0.000286 s⁻¹; the kon stood at 187000 M⁻¹ s⁻¹. In experiment [2], the dissociation constant (Kd) is 19.2 nM, the “T½” value worked out at 38 min, the koff worked out at 0.000307 s⁻¹ and the association rate constant (kon) was 16000 M⁻¹ s⁻¹.

B6: H1H7232P (monovalent 1-arm) (antibody, human IgG1, V domains shown)
VH: EVQLVESGGGLVHPGRSLRLSCAASGFTFDDYTMHWVRQAPGKGLEWVSDISWNSGSRGYADSVKGRFTISRDNAENSLYLQMNSLRAEDTALYYCAKDKSGYGHYYYYAMDVWGQGTTVTVSS
VL: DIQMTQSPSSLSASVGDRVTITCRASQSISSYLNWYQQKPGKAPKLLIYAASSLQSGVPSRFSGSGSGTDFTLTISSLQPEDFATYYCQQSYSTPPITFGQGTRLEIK
notes: Monovalent 1-arm: second Fab removed, only the Fc portion (CH2-CH3) expressed; human IgG1 Fc; tied by numerical identifier; also called H1H7232B
Take B6: in experiment [1], the Kd amounted to 10 nM, the “T½” value came to 8 min, the koff amounted to 0.00149 s⁻¹ and the kon is 149000 M⁻¹ s⁻¹. In addition, in experiment [2], the Kd was found to be 220 nM, the “T½” value is 7 min, the koff turned out to be 0.00177 s⁻¹ and the kon was determined as 8030 M⁻¹ s⁻¹.

B7: H1H7221P (monovalent 1-arm) (antibody, human IgG1, V domains shown)
VH: EVQLVESGGGLVQPGRSLRLSCVASGFTFDDYSMHWVRQAPGKGLEWVSGISWNSGSKDYADSVKGRFTISRDNAKNSLYLQMNSLRAEDTALYYCAKYGSGYGKFYHYGLDVWGQGTTVTVSS
VL: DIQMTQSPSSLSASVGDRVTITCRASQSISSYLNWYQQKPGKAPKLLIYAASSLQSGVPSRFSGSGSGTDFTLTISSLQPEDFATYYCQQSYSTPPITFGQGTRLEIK
notes: Monovalent 1-arm: second Fab removed, only the Fc portion (CH2-CH3) expressed; human IgG1 Fc; tied by numerical identifier; also called H1H7221B
Take B7: in experiment [1], the Kd was determined as 1.75 nM, the “T½” value was 48 min, the koff was 0.000239 s⁻¹ and the kon came to 136000 M⁻¹ s⁻¹. In experiment [2], the Kd turned out to be 27.5 nM, the “T½” value was 40 min, the koff stood at 0.000292 s⁻¹ and the kon stood at 10700 M⁻¹ s⁻¹.

B8: H1H7198P (monovalent 1-arm) (antibody, human IgG1, V domains shown)
VH: EVQLVESGGGLVQPGRSLRLSCAASGFTFADYTMHWVRQVPGKGLEWVSDISWNSGSKDYADSVKGRFTISRDNAKNFLYLQMNSLRAEDTALYYCVKYGSGYGKFYFYAMDVWGQGTTVTVSS
VL: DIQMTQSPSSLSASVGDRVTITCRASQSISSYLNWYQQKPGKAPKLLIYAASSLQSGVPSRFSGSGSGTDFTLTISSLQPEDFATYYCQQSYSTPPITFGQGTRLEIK
notes: Monovalent 1-arm: second Fab removed, only the Fc portion (CH2-CH3) expressed; human IgG1 Fc; tied by numerical identifier; also called H1H7198B
Regarding B8, in experiment [1], binding was characterised by a dissociation constant (Kd) of 0.112 nM, the “T½” value was 163 min, the koff was 7.07e-05 s⁻¹ and the kon turned out to be 628000 M⁻¹ s⁻¹. Besides, in experiment [2], binding was put at a Kd of 6.02 nM, the “T½” value is 73 min, the koff was 0.000158 s⁻¹ and the kon came to 26300 M⁻¹ s⁻¹.

B9: H1H5793B (antibody, human IgG1, V domains shown)
VH: QVQLVQSGTEVKKPGASMKVSCKASGYTFTGYYIHWVRQAPGQGLEWMGWINPNSDVTKYAQKFQGRVTLTRDTSISAAYIDLSRLRSDDTAIYYCARMGDGAVFDYWGQGTLVTVSS
VL: DIQLTQSPSSLSASVGDRVTITCRASQRISSYLNWYQQKPGKAPKVLISVASSLQSGVPSRFSGSGFGTDFTLTISSLQPEDSASYYCQQSYNTPLTFGGGTKLEIKR
notes: H1H: human IgG1 Fc; divalent
As to B9, in experiment [3], the Kd was determined as 0.333 nM, the “T½” value is 73 min, the koff is 0.000159 s⁻¹ and the kon was 478000 M⁻¹ s⁻¹. Also, in experiment [4], the Kd was 44.7 nM, the “T½” value amounted to 30 min, the koff was found to be 0.000382 s⁻¹ and the on-rate constant (kon) was 8540 M⁻¹ s⁻¹.

B10: H1H5790B (antibody, human IgG1, V domains shown)
VH: EVQLVESGGGVVQPGRSLRLSCAASGFTFSYYGMHWVRQAPGKGLEWVAVISFDGKNKYYADSVMGRFTISRDNSKNTLYLQMNSLRAEDSAVFFCARSYDILTGYGAGYSYHYGMDVWGQGTTVTVSS
VL: AIQMTQSPSSLSASVGDRVTITCRASQRISSFLNWYQQKPGKAPKLLIYTASNLQNGVPSRFSGSGSGTDFTLTISSLQPEDFATYYCQQSYRTPLTFGGGTKVEIKR
notes: H1H: human IgG1 Fc; divalent
In the case of B10, in experiment [3], the Kd was 0.254 nM, the “T½” value came out at 49 min, the koff is 0.000236 s⁻¹ and the kon worked out at 925000 M⁻¹ s⁻¹. Besides, in experiment [4], the affinity, expressed as Kd, was 28.3 nM; the “T½” value worked out at 22 min; the off-rate (koff) worked out at 0.000517 s⁻¹; the kon was 18200 M⁻¹ s⁻¹.

B11: H1H5801B (antibody, human IgG1, V domains shown)
VH: QVQLVQSGGGVVQPGGSLRLSCAASGFTFDDYAMHWVRQAPGKGLEWVSLISGDGGSTYYADSVKGRFTISRDNSKNSLYLQMNSLRTEDTALYYCAKDDSSSSWYYYYYGMDVWGRGTTVTVSS
VL: DIQMTQSPSSLSASVGDRVTITCRASQRISSYLNWYQQKPGKAPKVLISVASSLQSGVPSRFSGSGSGTDFTLTISSLQPEDFASYYCQQSYNTPLTFGGGTKVEIKR
notes: H1H: human IgG1 Fc; divalent
In the case of B11, in experiment [3], the Kd worked out at 3.38 nM, the “T½” value came out at 10 min, the koff was 0.00112 s⁻¹ and the kon worked out at 331000 M⁻¹ s⁻¹. In experiment [4], the dissociation constant (Kd) stood at 246 nM, the “T½” value turned out to be 7 min, the koff worked out at 0.00162 s⁻¹ and the kon worked out at 6570 M⁻¹ s⁻¹.

B12: H1H5795B (antibody, human IgG1, V domains shown)
VH: EVQLVESGAEVKKPGASVKVSCKTSGYSFIGYYIHWMRQAPGQGLEWMGWINPKSGVTNYAQRFQGRVTMTRDTSISTAYMELSRLKSDDTAVYFCARMGDGAVFDFWGQGTLVTVSS
VL: DIQLTQSPSSLSASVGDRVTITCRASQRISSFLNWYQQKPGKVPKLLIYTASNLQNGVPSRFSGTGSGTDFTLTISSLQPEDFATYYCQQSYRTPLTFGGGTKVDIKR
notes: H1H: human IgG1 Fc; divalent
On to B12, for which, in experiment [3], the affinity, expressed as Kd, was 0.145 nM; the “T½” value was 50 min; the dissociation rate constant (koff) was 0.000229 s⁻¹; the kon turned out to be 1.58e+06 M⁻¹ s⁻¹. Also, in experiment [4], binding was put at a Kd of 33.3 nM, the “T½” value turned out to be 20 min, the koff came out at 0.000576 s⁻¹ and the association rate constant (kon) came to 17300 M⁻¹ s⁻¹.

B13: H1H5799P (antibody, human IgG1, V domains shown)
VH: QVQLVQSGAEVKKPGASVKVSCKASGYTFIGYYMHWVRQAPGQGLEWMGWINPKSGGTNYAQKFQGRVTMTGDTSISTAYMELSRLRSDDTAVFYCARMGDGAMFDYWGQGTLVTVSS
VL: DIQMTQSPSSLSASVGDRVTITCRASQRISSYLNWYQQKAGKAPKVLIYTASSLQSGVPSRFSGSGSGTDFTLTISSLQPEDFATYYCQQSYSTPLTFGGGTKVEIK
notes: H1H: human IgG1 Fc; divalent
In the case of B13, in experiment [3], the equilibrium dissociation constant (Kd) worked out at 7.85 nM, the “T½” value came out at 2 min, the koff turned out to be 0.00564 s⁻¹ and the kon turned out to be 718000 M⁻¹ s⁻¹. Moreover, in experiment [4], the Kd came out at 579 nM, the “T½” value was determined as 1 min, the koff turned out to be 0.00788 s⁻¹ and the kon came to 13600 M⁻¹ s⁻¹.

B14: H1H7196P (monovalent 1-arm) (antibody, human IgG1, V domains shown)
VH: EVQLVESGGGMVQPGRSLRLSCAASGFPFNDYTMHWVRQVPGRGLEWVSDISWNSGSKGYADSVKGRFIISRDNAKNSLYLQMNSLRVEDTALYYCVKDGSGYGRFHYYAMDVWGQGTTVTVSS
VL: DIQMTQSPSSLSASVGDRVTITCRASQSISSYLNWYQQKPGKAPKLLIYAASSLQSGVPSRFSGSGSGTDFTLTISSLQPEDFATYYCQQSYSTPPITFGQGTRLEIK
notes: Monovalent 1-arm: second Fab removed, only the Fc portion (CH2-CH3) expressed; human IgG1 Fc; tied by numerical identifier; also called H1H7196B
On to B14, for which, in experiment [1], binding was put at a Kd of 2.49 nM, the “T½” value was found to be 25 min, the koff came out at 0.000461 s⁻¹ and the kon stood at 185000 M⁻¹ s⁻¹. For the same molecule, in experiment [2], binding was put at a Kd of 41.3 nM, the “T½” value turned out to be 26 min, the koff turned out to be 0.000443 s⁻¹ and the kon came to 10700 M⁻¹ s⁻¹.
